Assay results: US7425614B2, “Neuroprotective therapeutics preventing ERK/MAPK activation through the NMDA receptor” (Children's Medical Center Corporation, priority 2003, dated 2008)

Tests used:
NMDA receptor [1] = assay: whole-cell recordings of NMDAR-mediated currents in cultured hippocampal neurons; format: cell-based, rat
[2] = biological target: T1, NR2B/RasGRF1 native complex (Rattus norvegicus, UniProt P28818+Q00960); assay: competition co-immunoprecipitation of native NR2B-RasGRF1 complexes from rat brain microsomes; format: binding; conditions: NusA fusion proteins 3-5 μM; 6- to 8-week-old rat brains
T1 construct: from tissue; host or cells: P2 microsomes of 6- to 8-week-old rat brain
T1 sequence (Q00960 27-1482): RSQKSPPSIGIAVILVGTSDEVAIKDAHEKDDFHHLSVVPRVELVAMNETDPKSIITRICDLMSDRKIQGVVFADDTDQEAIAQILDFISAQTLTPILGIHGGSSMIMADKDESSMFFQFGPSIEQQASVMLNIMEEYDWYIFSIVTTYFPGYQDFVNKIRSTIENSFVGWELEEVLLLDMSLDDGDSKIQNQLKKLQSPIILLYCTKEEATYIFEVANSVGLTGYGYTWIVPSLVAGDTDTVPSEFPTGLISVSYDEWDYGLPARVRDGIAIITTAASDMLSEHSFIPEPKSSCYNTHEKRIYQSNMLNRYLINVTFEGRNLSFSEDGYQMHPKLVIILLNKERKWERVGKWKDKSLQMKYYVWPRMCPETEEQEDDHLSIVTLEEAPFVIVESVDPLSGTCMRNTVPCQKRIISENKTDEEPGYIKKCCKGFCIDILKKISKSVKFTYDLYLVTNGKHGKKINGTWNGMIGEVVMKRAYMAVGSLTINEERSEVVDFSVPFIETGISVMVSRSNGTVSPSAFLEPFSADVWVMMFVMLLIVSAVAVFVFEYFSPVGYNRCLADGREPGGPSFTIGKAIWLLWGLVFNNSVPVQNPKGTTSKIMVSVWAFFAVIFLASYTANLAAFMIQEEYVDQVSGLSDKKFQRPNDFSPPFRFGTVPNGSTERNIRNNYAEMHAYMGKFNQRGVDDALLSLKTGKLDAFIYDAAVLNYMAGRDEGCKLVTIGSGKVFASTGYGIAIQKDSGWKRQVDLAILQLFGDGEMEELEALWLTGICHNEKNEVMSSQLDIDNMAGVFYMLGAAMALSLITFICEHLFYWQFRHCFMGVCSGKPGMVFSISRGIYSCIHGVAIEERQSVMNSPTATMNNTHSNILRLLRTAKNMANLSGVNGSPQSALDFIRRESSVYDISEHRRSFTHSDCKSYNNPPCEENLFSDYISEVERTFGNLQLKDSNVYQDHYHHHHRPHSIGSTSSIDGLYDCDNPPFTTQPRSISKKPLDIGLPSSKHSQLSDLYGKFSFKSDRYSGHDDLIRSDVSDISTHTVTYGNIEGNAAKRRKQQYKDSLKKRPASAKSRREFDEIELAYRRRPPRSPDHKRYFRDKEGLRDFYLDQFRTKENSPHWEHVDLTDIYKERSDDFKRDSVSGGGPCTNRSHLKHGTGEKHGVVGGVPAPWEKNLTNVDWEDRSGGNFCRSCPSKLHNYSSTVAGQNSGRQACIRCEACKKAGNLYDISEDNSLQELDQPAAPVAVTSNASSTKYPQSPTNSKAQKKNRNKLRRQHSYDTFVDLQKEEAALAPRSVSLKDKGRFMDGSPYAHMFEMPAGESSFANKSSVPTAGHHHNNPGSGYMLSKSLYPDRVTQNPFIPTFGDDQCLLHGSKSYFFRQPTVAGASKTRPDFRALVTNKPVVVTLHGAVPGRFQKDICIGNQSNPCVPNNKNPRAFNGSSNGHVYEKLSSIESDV
T1 sequence (P28818 whole entry, the tested form may be a part): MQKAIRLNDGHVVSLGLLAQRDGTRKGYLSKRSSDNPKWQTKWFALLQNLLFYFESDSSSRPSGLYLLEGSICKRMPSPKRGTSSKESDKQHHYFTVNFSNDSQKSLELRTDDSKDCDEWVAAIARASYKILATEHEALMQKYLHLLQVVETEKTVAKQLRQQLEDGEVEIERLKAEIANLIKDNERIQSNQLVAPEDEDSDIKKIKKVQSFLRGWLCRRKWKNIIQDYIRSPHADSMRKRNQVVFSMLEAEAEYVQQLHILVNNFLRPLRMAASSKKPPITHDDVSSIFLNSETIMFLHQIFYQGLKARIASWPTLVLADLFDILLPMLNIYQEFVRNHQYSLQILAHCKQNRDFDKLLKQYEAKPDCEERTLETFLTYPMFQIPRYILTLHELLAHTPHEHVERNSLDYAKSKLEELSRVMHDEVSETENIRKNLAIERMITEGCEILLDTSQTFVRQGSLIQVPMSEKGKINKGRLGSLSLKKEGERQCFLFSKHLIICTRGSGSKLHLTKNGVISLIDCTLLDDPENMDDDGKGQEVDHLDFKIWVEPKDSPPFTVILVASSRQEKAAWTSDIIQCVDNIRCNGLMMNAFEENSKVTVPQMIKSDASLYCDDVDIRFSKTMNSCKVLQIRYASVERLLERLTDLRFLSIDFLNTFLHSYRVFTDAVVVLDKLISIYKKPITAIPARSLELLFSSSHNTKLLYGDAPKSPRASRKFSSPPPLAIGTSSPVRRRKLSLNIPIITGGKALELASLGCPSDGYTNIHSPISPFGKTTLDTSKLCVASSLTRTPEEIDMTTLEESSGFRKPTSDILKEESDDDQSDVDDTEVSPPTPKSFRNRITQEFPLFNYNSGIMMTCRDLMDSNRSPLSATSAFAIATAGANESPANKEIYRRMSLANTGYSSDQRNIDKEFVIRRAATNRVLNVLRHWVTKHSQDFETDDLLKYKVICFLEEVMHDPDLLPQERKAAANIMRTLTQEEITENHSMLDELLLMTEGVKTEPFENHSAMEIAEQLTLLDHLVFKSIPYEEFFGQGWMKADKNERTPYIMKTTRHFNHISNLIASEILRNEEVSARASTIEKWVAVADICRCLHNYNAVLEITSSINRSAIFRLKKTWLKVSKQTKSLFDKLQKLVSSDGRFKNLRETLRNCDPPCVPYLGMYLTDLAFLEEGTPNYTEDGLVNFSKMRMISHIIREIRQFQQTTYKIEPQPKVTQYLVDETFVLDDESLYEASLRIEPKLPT
Procedure: Transfected cells were solubilized in lysis buffer (100 mM Tris-Cl [pH 8.5], 500 mM NaCl, 1% Triton X-100) supplemented with corn plete protease inhibitor (Roche) and immunoprecipitated with NR2B (Santa Cruz, sc-9057), NR1, or NR2A (Chemicon) antibody (5 μg/ml), washed with lysis buffer, separated on SDS gel, and blotted on PVDF. Blots were probed with anti-RasGRF1 (Santa Cruz) and the appropriate NR subunit antibody. 6- to 8-week-old rat brain P2 microsomes were isolated and solubilized as described (Luo, J., et al. (1997) Mol. Pharmacol. 51, 79-86). 80 μg of solubilized protein were immunoprecipitated with NR2B, RasGRF1, or pooled rabbit IgG, and immunoprecipitated proteins were probed on Western blot with RasGRF1 and NR2B antibodies. All immunoprecipitation experiments were only taken as valid if repeated 3-5 times with similar results. Routine negative controls with antigen pre-absorption were carried out for antibodies used in immunoprecipitation experiments. […]
For in vitro binding experiments, equimolar amounts of in vitro translated ^35S-labeled proteins (calculated from radioactivity of the excised protein band and cysteine content in the specific fragment) were incubated with a 3-fold molar excess of translated RasGRF1 for 30 min at 30° C., diluted with RIPA buffer, and immunoprecipitated with anti-HA-agarose (Santa Cruz). […]

NMDA receptor [3] = assay: evoked NMDA EPSCs in organotypic cultures of hippocampal slices; format: cell-based, rat
Procedure: Organotypic cultures of hippocampal slices were prepared as described (Becq, H., et al. (1999) J. Neurosci. Res. 58, 553-566) according to modified technique of Stoppini et al. (J. Neurosci. Methods 37, 173-182 (1991)). Hippocampal slices (400 μm) were cut from postnatal 7-day-old rat brains and incubated in culture medium in 5% CO2. Infections were performed on the 6th day of slice incubation by local pressure injection of virus via a patch pipette (tip diameter ˜1 μm) into the CA1 region of the hippocampus.
For electrophysiological recordings, slices were placed in a recording chamber and perfused with ACSF including in mM: 119 NaCl, 2.5 KCl, 2 CaCl2, 2 MgCl2, 26 NaHCO3, 1 NaH2PO4, 11 glucose, 0.01 bicuculline, 0.01 CNQX, 0.002 2-chloroadenosine (pH 7.4), in 5% CO2/95% O2. Synaptic responses were evoked by bipolar electrode with monophasic voltage pulses (1-10 V, 200 μs). The stimulating electrodes were placed over Schaeffer collateral fibers. NMDA evoked EPSCs were recorded at different holding potentials before, during, and after ifenprodil application in order to measure the I-V relationship. For analysis, at least 5 NMDA-evoked EPSCs were averaged for every experimental condition.

co-immunoprecipitation of NR2B and RasGRF1 [2]: completely blocked
B1: NR2B-BD: peptide of amino acids 886-1310 of the NR2B C-terminal domain that binds RasGRF1; used as NusA or EGFP fusion (protein)
chain: SPTATMNNTHSNILRLLRTAKNMANLSGVNGSPQSALDFIRRESSVYDISEHRRSFTHSDCKSYNNPPCEENLFSDYISEVERTFGNLQLKDSNVYQDHYHHHHRPHSIGSTSSIDGLYDCDNPPFTTQPRSISKKPLDIGLPSSKHSQLSDLYGKFSFKSDRYSGHDDLIRSDVSDISTHTVTYGNIEGNAAKRRKQQYKDSLKKRPASAKSRREFDEIELAYRRRPPRSPDHKRYFRDKEGLRDFYLDQFRTKENSPHWEHVDLTDIYKERSDDFKRDSVSGGGPCTNRSHLKHGTGEKHGVVGGVPAPWEKNLTNVDWEDRSGGNFCRSCPSKLHNYSSTVAGQNSGRQACIRCEACKKAGNLYDISKDNSLQELDQPAAPVAVTSNASSTKYPQSPTNSKAQKKNRNKLRRQHSYDTFVDL
modifications: left off: small tags and cut ends
notes: used as NusA or EGFP fusion
average amplitude of the whole-cell current induced by bath application of NMDA (NMDA receptor [1]; 100 μM NMDA, neurons expressing BD fusion constructs): did not affect
proportion of ifenprodil-sensitive (NR2B) current stimulated by NMDA bath application (NMDA receptor [1]; cultured neurons, 3 μM ifenprodil): neither RasGRF1-BD nor NR2B-BD expression changed
mean amplitude and kinetics of the spontaneous NMDAR-mediated excitatory postsynaptic currents (NMDA receptor [1]; neurons expressing BD fusion constructs): did not affect
portion of the ifenprodil-sensitive component of the evoked EPSCs (NMDA receptor [3]): Neither of the expressed peptides decreased
